From FireProtDB (doi:10.1021/bi701495v)

Conditions: Ajellomyces capsulatus (strain G186AR / H82 / ATCC MYA-2454 / RMSCC 2432); pH 6.5; 25 °C; Urea; CD; KH2PO4 0.01 M; KCl 0.1 M; reversible: Yes; whole UniProt chain shown

B1: Calcium-binding protein wild type, O42720 (protein)
chain: MLFSKVIAPAFILLGAASAAPGGLAPENASKRDQPSVGDAFDKYNEAVRVFTQLSSAANCDWAACLSSLSASSAACIAAVGELGLDVPLDLACAATATSSATEACKGCLW
denaturant m value: 0.84 kcal/mol/M
denaturant midpoint (higher = more stable): 3.4 M
unfolding free energy: 2.9 kcal/mol
